In general, Kd refers to the free concentration of one partner at which half of the binding sites on the other are occupied at equilibrium, for simple one-to-one binding. Lower therefore signals higher affinity.

The record followed here is patent publication JP2020002075A.

The target of test [1] is ポドプラニン (ポドプラニン提示CHO細胞, 種の記載なし). Kind of test: binding to podoplanin-displaying CHO cells; reference clone 1 scFv.
Test [2] deals with ポドプラニン (ポドプラニン提示CHO細胞, 種の記載なし). Put plainly: flow cytometry; cells and species not named at this place. (In general: Flow cytometry measures light scatter and fluorescence of single cells or particles in a stream.)

B1: clone 1から作製したdiabody (protein)
chain: EVQLKESGGGLVQSGGSLRLSCAASGFSLTDYGVNWVRQAPGKGLEWVGVIWGGGNTYYNSALKSRFTISKDNSKNTLYLQMNSLRAEDTAVYYCAKHRGAWGQGTLVTVSAGGGGSDIVMTQSPSTLAVSLGEKATINCKSSKSLLNSGNQKNYLIWYQQKPGQPPKLLIYGASTRESGVPDRFSGSVSGTDFTLTISSLQAEDLAVYYCQNDHTYPLTFGQGTKVEIKRTV
Consider B1, for which the fold increase of affinity against the scFv (clone 1) in test [1] is 100 fold. The molecule further gave a Kd in test [2] of 1.7 nM.
